# Assay: soluble on expression in E. coli; label from the status in PepcDB or PDB records
row,Sequence,soluble on expression in E. coli
1,MSLSPPGVRLFYDPRGHHAGAINELCWGLEEQGVPCQTITYDGGGDAAALGALAARSSPLRVGIGLSASGEIALTHAQLPADAPLATGHVTDSDDQLRTLGANAGQLVKVLPLSERN,soluble
2,MSLSQEMIKKWLDEEGFLRMEVPDENARFHYVVNYPEDHVIDIIQPAGKDDMILIACATSVSPEHQAGIRALSMEKRTEFIWKVRFTLNRFGVDFQLDHPENVLNSYLVTDEIFFDGLSKDRLISSIKNVFRAKLQVMWMIQERFGEERPEHDSMYVEGHHHHHH,soluble
3,MSLSQPRYLSESKVAIKQSSDINGSNLNVGLLLGTGNPSSAEDALYLKEYISSPDMLGVLDKQLNFRQAFGQSGWDFFYHLSEGATREQFLNYYRDRISVVYDDKTGLLTLGTQGFSPEFAEAFNQAVLKESEKFINEISHRIAREQLQFAEDEMQAARVRLNRSKTELLTYQNSNNVLDPEAQALAATSLVNTLVSQRIQMEAELRNLLTYLRDDAPQVISAQNALKSLSTQIDNEKNKITAPDGHKLNRMAVDFEEIKAKVQFDGEIYKLTLTSIEKTRVDAARKLKVLSVISSPQLPEESAFPNREGHHHHHH,soluble
4,MSLSRITTDQLRHAVLDRGSFVSWDSEPLAVPVADSYARELAAARAATGADESVQTGEGRVFGRRVAVVACEFDFLGGSIGVAAAERITAAVERATAERLPLLASPSSGGTRMQEGTVAFLQMVKIAAAIQLHNQARLPYLVYLRHPTTGGVFASWGSLGHLTVAEPGALIGFLGPRVYELLYGDPFPSGVQTAENLRRHGIIDGVVALDRLRPMLDRALTVLIDAPEPLPAPQTPAPVPDVPTWDSVVASRRPDRPGVRQLLRHGATDRVLLSGTDQGEAATTLLALARFGGQPTVVLGQQRAVGGGGSTVGPAALREARRGMALAAELCLPLVLVIDAAGPALSAAAEQGGLAGQIAHCLAELVTLDTPTVSILLGQGSGGPALAMLPADRVLAALHGWLAPLPPEGASAIVFRDTAHAAELAAAQGIRSADLLKSGIVDTIVPEYPDAADEPIEFALRLSNAIAAEVHALRKIPAPERLATRLQRYRRIGLEGHHHHHH,not soluble
5,MSLSRLSEKKGFNFNIIKNDPLDGHKGTNIGSISLDNIAPVFIDIENQKAFVDIGGMHARAEVEKGVKWITDKSQVEGEEAKAYWLCWVTTERSEQGPYYAGVTACYLLVNKSIRRGYKSMPEHVNMMDKSMKHQFIIDQIGDDNKQILKEFLQNHNVEMWNNSSEELYRTFEEGHHHHTTDPNSSSVDKLAAALEHHHHHH,soluble
6,MSLSRLVVVSNRIAPPDEHAASAGGLAVGILGALKAAGGLWFGWSGETGNEDQPLKKVKKGNITWASFNLSEQDLDEYYNQFSNAVLWPAFHYRLDLVQFQRPAWDGYLRVNALLADKLLPLLQDDDIIWIHDYHLLPFAHELRKRGVNNRIGFFLHIPFPTPEIFNALPTYDTLLEQLCDYDLLGFQTENDRLAFLDCLSNLTRVTTRSAKSHTAWGKAFRTEVYPIGIEPKEIAKQAAGPLPPKLAQLKAELKNVQNIFSVERLDYSKGLPERFLAYEALLEKYPQHHGKIRYTQIAPTSRGDVQAYQDIRHQLENEAGRINGKYGQLGWTPLYYLNQHFDRKLLMKIFRYSDVGLVTPLRDGMNLVAKEYVAAQDPANPGVLVLSQFAGAANELTSALIVNPYDRDEVAAALDRALTMSLAERISRHAEMLDVIVKNDINHWQECFISDLKQIVPRSAESQQRDKVATFPKLAEGGSHHHHHH,soluble
7,MSLSSGRTVPTRSHGLGKEGVSTTGASQVEFGDPELTARINDAMVQVEELLHTELSSGEDFLVDIVMHLTRAGGKRFRPMFALLASEFGEKPLSENVIKAAVVVEITHLATLYHDDVMDEASMRRGVPSANARWDNSVAILAGDILLAHASGLMSQLGTDTVAHFAETFGELVTGQMRETVGPRDTDPIEHYTNVIREKTGVLIASAGYLGAMHAGAAPEHIDALKNFGAAVGMIFQIVDDIIDIFSETHESGKTPGTDLREGVFTLPVLYALREDTPVGAELRDILTGPLEDDETVNHVLELLSQSGGRQAALDEVYRYMDIANAELDRLPDSTVKEALRNLATFTVKRVGEGHHHHHH,soluble
8,MSLSSLGEELETKISEEVGFKPLGIKRILPAASTKLPFASLDNFAIDNHNNKYAAASGELLICGDLQKLREYVTNDNEEDNYEPEYKHEISNIIALKFMNGKLILVTKSGRICEYSTENLNQELMNHELKLDLVSVKTLPSKIIMLDSSNVLKGLSLSNLNLENIAENISSFDVLYDKLVYISVLKDIYVSDTISNGVNKEIILPESLSEELDDGYEALDIKILSENEYFVVFGNNVSPDESDPSYDHKTYVVSQKEESVVYQETFDIAPAFASVLRYPCYYNVILPGIFEEDKNVNIIGSATSSEISVWDSVNVVQPDQDSERAVFPISKETDEDTTPIGMCLDFSTVGEIPEPCPGVDNTDSLPLVYSLTNEGFLQINGFYHTGLIKAGKYDIKLLGERIYSIYEQDGGEVEEGHHHHHH,soluble
9,MSLSTIDLHVHSNYSDGIHPPADLVKMAAERGLVAIAIADHDTVDGIDEALIAGARLGVEVVPAVELSAEHGRYRDMHILGYHLDHRDPRLVDMLAEFRINREIRGRAIVDKINQRLADGRKPLLSYDEVLNLAEGAVGRPHIGRMLIERGYARNMEDAFRRYLIPCNVPKRYIPAGDAITEIRRAGGVAVLAHPITVSDDRQVLRGIVSELVALGLDGIEVFNNMCYKDDMLFLEFLCRESGLLMTGGSDFHGFEDDVEIGSGREGHHHHHH,not soluble
10,MSLSTPIQAEPPNLSLIRKEIKNYYDSGLYYHELERTIKLAQEYIHQQYLINKNNKHPQKLAIVLDIDETSLSNYDKMVKRDFTGSKEQIHKEILAANSPAIKPMLTLYKNALKQGIKVFFVTGRQESERDATRANLIKAGYTKWAGLYLRPNGYSSPSIIPFKSKAREMIAKKGYTIIASIGDQCSDIQGGYTKKGFKLPNPFYYLPEGHHHHHH,soluble
11,MSLSTRVFPERPILVVDDERAALDGFEVALVSSGYTNIVTMDDSRKVLPFIAEHEAELILLDLIMPHVSGTELIEEIKRRRPEVPIIIITAVNDIDSVVECIRNGAQDYILKPVDKDHLRNRVQQALERRELERENRLLRASLLDGEIRHPEAFSDIVTQDQKMHAIFRYCEAVAPSTKPILITGETGTGKELVAQALHRLSGRKGEFVAVNIAAFDDPVFADTLFGHSRGAFTGADTPRAGLVEKAAGGTLFLDEIGDLPALSQVKLLRLLQEKEYFPVGSDNAKKANVRIVASTLKNLVDLRHRGLFRDDLYYRLTTHRIHIPPLRERPGDIPCLLDHFLELDAREQKRKPPSYHPELINLLRSYAFPGNIRELRGMISDAFMNHASHMLSSSSFRQYIMNEGHHHHHH,soluble
12,MSLSTVTMILGQSGTGKSTSLRNLDPSQTLLIQAIKKPLPFKSGNWKPANKENPAGSIFVCDSAATIVGAMKRTKRPVIVIDDFQYVMANEFMRRSAEKGFDKFTEIGRNAWDILVEAARLPDEVRVYVLSHVETTDDGRTKIKTIGRMLDEKITLEGMVSIVLKTVVQDGQHFFATRNNGSDTVKTPMGMFDADLIENDLAAVDTAIYQYYGLTEAEGHHHHHH,not soluble
13,MSLSYRIDGLQYANWSEKIFRQLRAGNVDAVHVTIAYHESFRETVLNFEKWNRWFEQYPDLIMKGQWASDIDTARETGRTAIFFGFQNPSPIEDDIGLVEILHTLGARFMQLTYNNQSLLATGCYEAEDAGITRMGRQVIKEMNRVGLVVDMSHSADRSTIEAVEISERPIAITHANPHDWAPALRNKRDDVIRAVTENGGMLGFSVYPHHLKDKSDCTLDSFCEMIARTAERYGVDHLGIGTDLCQDQPDSVVEWMRTGRWSKEIDFGEGSASAPGFPPMPHWFEDNRDFGNIENGLRATGLNKDEVAGIMGGNWYRFFAQNFVPQGEGHHHHHH,soluble
14,MSLTALSALIEQKLQSLGTILCQSFPELSPEKIHEAIQQNSNHPELPVYQLGYAIAMSDFVEKVLQKYPHLVKQWWEKSPCFADCTAYIERLNKELANVHDETALYQTLRQFRNIEMAKLSFCQSLNLATVEEIFVQLSQLAESLIIAARDWLYHQACAEIGTPMDEQGNPQQLYILGMGKLGGFELNFSSDIDLIFTYPSQGETSVENTNARRSVDNGKFFTRLGQRLISALDEFTSDGFVYRTDMRLRPFGDSGVLVLSFSAMEQYYQDQGRDWERYAMIKGRVLGAQTKDPNVSKLKKMLRPFVYRRYIDFSVIQSLREMKGKIEREVRRRGLKDNIKLGAGGIREVEFIVQVFQLIRGGREINLQQHSLLKILPEITKLRLITEQQFHDLRESYIFLRRVENILQAINDQQTQTLPTDEIDQIRLVEACKTFTCLNENNQTIEKHYPIENWDDFYRTLQQKQEKVRAVFTQLIGDEQDESSQTDSQWQDFLEADFEDIEQTLLESSVSENNIDEVLEKLAQFKDGLNHRVIGSRGRDVLSHLMPTVLALIFEQENYRTLLPRILNIIEKISSRTTYLELLLENPRALQQVIELCAQSQLISEQLAHYPILLDELLNTEALRHPLPFTQYPAELHQYLLRLPPDDEEQLIDALRQFKQATLLKVAAADILGALPVMKVSDHLTYLAEAIIEVVVNLAWKQVSSRFGVPEHLQNNEKGFLVIGYGKLGGIELGYKSDLDLVFLYDAVESQTTGGKKVIDSNQFYLRLAQKIVSIFSINTSAGVLYEADMRLRPSGDAGLIGCSLSAFSHYQLNDAWTWEKQALVRARPVFGESSLKAKFEHIRQQVLSASRDIEQLKQDVVEMRKKMFAHLSHSKHSEFNLKTDRGGITDIEFIAQYLMLANAPKKPQLTKWSDNVRIFDDMAEAKIISQTDCDTLKQCYVDLRNTIHHLNLLGKSSVVEDSEFVKERSFIQAFWDRLFVSEGHHHHHH,soluble
15,MSLTDLIVTNGAVLTMDPARPEAEAVAVADGRITAVGSRAEIERLAGPRTDMIDAGGGTVLPGFVESHLHLVLGGAELAHLQLAGVHGVEALTRAAQSFAAAHPDRPLLMAQGGDYGLLDRPMTRQDLDAILPDRPFAITAPDHHTVWANTAALRAAGLIEGASMPHGHEVVMGADGRATGELREFEAFAPVIALGGEARLNLGIATGEEPSPWPDAAERAIDRAKIARGLAHCAAHGITSMVNMDGNRYTLELLRELQRAGGLTARIRVPFHFKPHMALADLARAEAMTRDFDDDWLACNFVKMFMDGVLDSGTAYRLDDYPDAPGWRSEPLFEPARFAEIATAVDRRGLQIAVHAIGCGAVRTTLDGYAAARAANGARDSRHRIEHIELIDRADIPRLAALGVVASLQPPHPPGAMDFPLQPTLDRIGRSRWPDAYLCRTLAEAGAPVVFASDWPVTDVSVLRGLQAALTRRPYEGAADERLTLAESLRAYTAGGAWANHRERLTGTLRAGLAADLAILDGRLEARAADSLGSLGVARTLCGGRTTHRREGHHHHHH,not soluble
16,MSLTDLTKANEWLKDADAVIVTAGNGMAKEEGLDILSEENFDNQFGEIAEKYDVHTIGDALDKEFDSWEEKWTFWSKLINEYSLQYEKSENMKALEKLLEDKEYFIATSTFAHFFENAGFNENRIFDAFGDWTKMQCSSGINHGQKDNREVVKQFLQGKGELPKCEDCGSPMELHMPLNAHFFPDTDANTRFRWFLTGNEEKNVVVLELGVDATSPQLLDPMVNLVQQFSNWHYIAADLANDNLPDDLKKRAIGFGSDTHETLMNLTKEGHHHHHH,soluble
17,MSLTDNKTVPNGAPILYIVPTPIGNLGDITQRALDVLASVDMIAVEDTRHTGKLLAHFNISTKTFALHDHNEQQKAQVLVDKLLSGLSIALVSDAGTPLISDPGYHLVTQCRQAGVKVVPLPGPCAVITALSASGLPSDSFSFEGFLPAKSKARKDKLLEIAKVSRTCIFYESPHRICESLQDMLDVLGGEREVVLARELTKTFETIQGMPLAELITWIAEDDNRKKGEMVLLVHGYRDAGEQQLPDEALRTLTILTKELPLKKAAALVAEIHQLKKNALYKWGLENLGEEGHHHHHH,soluble

# Source: the DeepSol protein solubility set
